This note sets out measurements from the DeepSol protein solubility set.

This data set in a line: soluble on expression in E. coli; label from the status in PepcDB or PDB records.
On to “MGSDKIHHHHHHMYKINIIRSDSVYKNILKAPINDRDSIFTKEILVPFKKKFEVQHMPIYNDDKQTMSAIQFLDAFQISPKDLRMSDQMSIQYLNNDFWSNCEKYLKVAIDQFSNYSISSQVSNYHFTVLLGDSQKPLMYLNKNRGGDGGIPGYIMIYLVPSTSTINSMKSLIAHEVNHNMRYQYIDWDGGSLIELIIAEGLAENYVESLYGKAHIGPWVTNTNWSRDNVKIKNTIYNHLHLKHIFESMPYLYGDDINKLQGRPIVGLSHAAGYACGYHLVKYFLQKTNIPIEVATTLPAQKIINEVTEFWHTHTL”, for which the “soluble on expression in E. coli” value is “not soluble”.
As for “MGSDKIHHHHHHMYSFVARQPILNQHRQTVAYELLFRMDITNKFPDVSPEFATAQLISDQFLTNPLARSVVEQPYYINFPHQMLINGQAEVLPQEKVVIEILENAAPDNDLFAAVKKLKRKGFKIALDDFSMDSEWDRFLPYIDVIKFDLTLSTFGDIENFIKRTKQRKLIYLAEKVETHEQYMQSKKLGISLFQGYFFSRPEMIKSKKLVNKSSNTIRLLREVNKPEINYAAIEELVCADLSLYYKLMRHITNIKYNTRFGITATSMSFRSMAMLLGQRELKRFVSLISITNSNENKPSELYRTSLIRARFFELLYASFNVKEDTTEAFLCGLLSLLDAVLDSPMPLLLSQIALSEKINQSLLENTGELAVYLTLIAKYEQQEWEELERLLIQLGIDEENFFTMIMEATQWADEIL”, the “soluble on expression in E. coli” value is given as “not soluble”.
The entry for “MGSDKIHHHHHHMYTFTNQFISNDKNVEFLKAAMMGPNAMRLAEELSSHLNIDETMRILDLGCGCGLSTLLLTKKYGASVFAADLWISPTENYERFQSLGIADKAVPISVDATKGLPFAKGYFDLLFTVDAYHYFGDTAAMLPSLIPFVKKGGYIAVAIPGLNYEFEDKVPDEMQPFWNSEMARTLHSLDWWKDLWKKAEGIEMVDSREMACCREAWQEWLTAYHPIVAEDIKMMAAEDGKYFNLVQLIAKVL” is “not soluble”.
The entry for “MGSDKIHHHHHHMYTIAIDLGGTVVKIGLLSDGEIVDCVRLPSRLALGLALNLPKIKEAIDRLLAAWRIDVAALRCIGLAFPGLVDPIHNRVISTNEKYDDACSISLDKWAWENWEVPFCMDNDARLAVAGEWWQGAARGKNNVVMMTIGTGIGTGVVIDGRLLYGQHFQAGSLGGHFVLDYKGRRCSCGNKGCVEALSSSFFLPTIIREHALLSESFKRDADIYDFKRIFRLAQEGNTDALLIRNECMDIWASAIITYIHAYDPEVVILGGGILKSQEVIIPYISKRVDELAWCPSGKVPVVPAILGDDAALFGLEYFMVKQQQNERICI” is “not soluble”.
With “MGSDKIHHHHHHMYVTSQIHAKGSDLAKLMQIAALKGNEEVLDVATGGGHVANAFAPFVKKVVAFDLTEDILKVARAFIEGNGHQQVEYVQGDAEQMPFTDERFHIVTCRIAAHHFPNPASFVSEAYRVLKKGGQLLLVDNSAPENDAFDVFYNYVEKERDYSHHRAWKKSDWLKMLEEAGFELEELHCFHKTFIFEDWCDRMNVTTEKKQELSDFIKSKPTEYYQKFKIVVEDGRVYSFRGESILMKARKPTVKNKGSS”, the “soluble on expression in E. coli” value is on record as “soluble”.
The entry for “MGSDKIHHHHHHMYYRPADGHGLPHNPFNAIVSPRPIGWISTRGEGGGDNLAPYSFFNAVAYEPPQVMFSSTSAKEDRGDTKDSVANIRETGVFCVNIVEYAARDAMNETSGPWPATEDEFQRAGIERADCTEIPCSRVASAPANLECRVTQIIKLEGAHNFAVFGEVVGVHIRDDVLVDGHFDVTRFNPLTRMGYRDYSVIRDVFSLKRPGE” is “not soluble”.
“MGSDKIHHHHHHNFDDLLQLLEIHSRVFDVTPPSTGTVGSMRYLEYNGHVLANVEDLYILDNNKLPSPGVPVETLKLFGVDYIQTGDGVKIITCRVNSIEEIGKTVVVNFEGEKNFDVEQTQNSVRIIAKDWLLFRGVVKMPEEVLYEKENVRIERTAESDGQFRILLSAESVGKYVVKPFGERVDPYEKDVVFLVGYGDGRIIVRSFSKDLNGLDLPAYSESLKLARKIANELGYKLEECPVYDIPVGVIGMIVLLKGKDEMPVFLNTVERLMAE”: the “soluble on expression in E. coli” value is “not soluble”.
“MGSDKIHHHHHHNTEQQLDSEVSEPTKTMRSQQHSDGAAAITHLTPLDLPLDSQGLTDEDSQQINSLLNQLHESAMSADWDTYFDLYHPDAAFIGTDATERWNMVHFRRYASPTQGWRYDLQARHLLQIEDVVVFDEQLYSPEYGISRGTGALVNTTKGWKIAQYHLSFPIPNAKAKRITTLIKQ”: the “soluble on expression in E. coli” value was “not soluble”.
The entry for “MGSDKIHHHHHHPEKKVATSVPAPQKMDGEQLFEDMQLGGVVNFLAFRQAVAGYNLIKQKSKSILTLIDFTKPSTEKRLFVFDMEQKKMLYSSVVSHGKNSGENYATSFSNEVGSYKSSLGFYLTGNTYQGRNGYSLLLDGLEKGINDRARERAIVVHGAAYANPSVCKSGRLGRSFGCPALPQALTKPIINTIKGGSVLFIYANNKEYMAKSSILPNQTSQELFTEACESEQTVSVHL” is “not soluble”; for “MGSDKIHHHHHHSEDTMDRINKDHDHTTSVASRFILADVITSTAFSNASGDINTYASSYIEYEVGVDNQLYYAEVRENEPSSSSTFNNSWNGIYSSLKNARIIIDQCGEGGRDHGNDVTRGMAEVMAAYNCALIADFFGDAPCSQAALVDEKGSPVYMTPKMDTQQEIYTQIISYLDDAIANLQKEDLADVTEQDFLYAGDADKWLKFAYGLKARYTMRLINRSSNKSADYEKVLDYVSKSFTSADDQAAFDIYDSNNINPFYGFYNSRAGFGASTSLGTKLLAYNDPRANRAFFTPIVDKKRSQVAANDPSLVPAPNGSPDQSTSKYGISAFVYAKTAPTLLMSYHELMFLKAEALCRLNRDAEDALKEAVVAGLLNAENSISIAIKELGSGLNTNSSEVITETSAGKYFDDVVKAKYAANPLQETMIQKYLAMWGASGEATETYNDFRRMKGLNENFITLTNPNNSSKFPLRYPYGNSDTAANPEVKAAYGNGDYVYSEPVWWAGGSR” it is “not soluble”; for “MGSDKIHHHHHHVAKVPQRKLLLSEIQLGMRVKLPLSWTNHPFLFNRVDISSAAQIEMIRGLGVPYVLLLSELNPASEVVEEDENVEDEIAAEPERDLKADTRKAIRLSQKRFLENVNNCRNVFGKIVSDPEGAYRLSAALVEDLLSHLQEVEKPFLTLVGMDDSDVSVTQHGVSVAVLAMMMGHALDLSPRELRDIALGSLLHDIGKLKVPDVIRRKRGALTPHEANYLQMHPNFAYDMLNRSGLFPKEVLHIVLHHHEFIDGSGFPDGLTDHKIPITTQIVSLANDYDQQLSGQQISSPQVALGYLFKNRATKHAESLIAILVKILGIYPPGTIVRLSDDSVAKVMMTTKEVSQPQVWACKEDGSEASLRFLSDEGVTVQKAIKAEELSEGAIRTLQVDKGVSFYFSSLQT” it is “not soluble”.
The entry for “MGSDKIHHHHHHVCSELAKDVPTNMSIKMPSLTPSSLSSLIPSSVPSEVQNVQGKDCMKEAIGADKIARQFSQAAKHYQEHDKVQRLSAQRLRTKMTPIGRLLDIGCGPGTDFSAAPGLNEVLGLDIAPGMLSQMLESFPSYKALCGDAQALPLSDASIDTLYSNLALQWCSDIKTAIGELARVLKPGSQCHLAIVVDGSLSELDALGLRVNAFEQAQTLLDGFSDSHWQIEHHSVEPLRVHFDDLKTLLYSIKGVGASAAMGSDVSQGSDVTQDSDASHGPDDTQGSVSKPPPRLRGRQDWLALCERAEKMRQPEGLPLTYQILFIHASRRG” is “not soluble”.
As to “MGSDKIHHHHHHVDLSVMNRKRSESFNEVAEIYDAARPSYPSQLIEDVIEMANLTDSASILDIGTGTGKGTVPFAEKGYAIYCLEPGERLIAIASQNMRLYPKVIFETVTLEDWNLRPSAFDLAISAQAFHWVNREKGYPKVAQALKEKGYIAFFWNFSILPDTSIFQALKETFQKYVPTISNAKPSSVESLIKKRENWILNSFYFKNLVVKKYPWSINYDAEGYLGLLKTQTAYQKFTGTEKQDFSDAIIQILNAHGGYVTKPYLSVLFFAQKI”, the “soluble on expression in E. coli” value is reported as “not soluble”.
For the sequence “MGSDKIHHHHHHVESLLTAADLHIHTTASDGTASPEAVLSYVATETDLRVIAITDHDTLRGALYARERASHYGIDVIVGCEISTRSGHLLALFIEQPVPAGLSVTETVARIHDQGGMAFAAHPFGMLVPSIGRRHLLGPERTDVDWMQLDGIEVFNASLWNPMNNERAARCAQRWGLTHIGGSDAHNLTMIGAGRTLFAGTGAADLRRALQRRATLVHGRYWGWRGVAGVVRERVWRQFGRPVESVS”, the “soluble on expression in E. coli” value is “not soluble”.
With “MGSDKIHHHHHHVGCMKWDYGKMEPFRATGDGLFIMNEGNFQYGNATLSYYDPETKKVENEIFYRANAMKLGDVAQSMIVRDTIGWVVVNNSHVIFAISTNTFKEVGRITGLTSPRYIHFISDEKAYITQIWDYRIFIVNPKTYQITGYIECPDMTMETGSTEQMVQYGKYVYVNCWSYQNRILKIDTTTDKVVDQLTVGIQPTSLVMDKNFKMWTITDGGYKGSPYGYEEPSLYRIDAETFKIEKQFKFQLGDAPSEVQLNGAGDELYWINKDIWRMSVDEERVPVRPFLKYRDTKYYGLTVSPKNGDVYVADAIDYQQQGMIYRYTEDGELVDEFYVGIIPGAFCWK”, the “soluble on expression in E. coli” value is recorded as “not soluble”.
The entry for “MGSDKIHHHHHHVKFRVDRDAFADAVTWTARALPARPAVPVLAGMRLEVADTASDTLRLSGFDYEVSAQASVDVHAEEAGSVLVPGRLLAEIVRTLPPHPVEFHVEGSRALLTCGNARFTLLTLPLEDYPTLPAMPRTIGSAPADVFATAVRQVLPSTSRDDTLPMLTGVHLTFRGDTILLAATDRYRIAVREMWWKPEEVDIDTSALVPARTLGDFSRSLTGGNVDIALSTSDSRGAGEGMIGFEHDGKRTTTRLIDSDFVSYESRFPTEFAAQADVPVAPLAEAVKRVALVADRSTPVRLSFTSSEVVLEAGSGDDAQALEALEVNFEGEPMRIAFNPQYFLDGLTNVETERAFLRFVAPTRPAVITGTPAKEGGKPDFRYLVMPLRLA” is “not soluble”.
Turning to “MGSDKIHHHHHHVKIRLALPQDVDLLAMLEKKHLNDELASANMGLQGQAFSHSELSELVQRHWVVVAQVEQQIVGYVIAGRWGFFEHWPIYRTLLNRLGQLDWDGPKLTKTNSCQYGPIWVQQAYRGQGIFEALVSEIRRQVAPHFSYMLTFIAEDNERSFAAHSGKAHMQVVDFFTVSARDYYLMAAKTQA”, the “soluble on expression in E. coli” value was “not soluble”.
The entry for “MGSDKIHHHHHHVLSNPSQVVLRNIELFESKNVLLINHECDLLATALLEDAAKVTTLALDFNHFQRIKSHENARLQCHFGHQLPSTQTFDAVVLFYPKSKSLAPYLLNLAGRHLIPGGELVIVGEKKGGIRSITKQLPDYFDGGIKLDNARHCMLYSSSLLSEAPEIKLSDWVKDYVLSTPQGELTICNLVGVFSEKRLDEGTELLLEHLPTLKGRVLDFGCGAGVITAALLKANPDLELECVDINAMALASCELTLAANGMQAKVYASDGLTQTQGMFDAIISNPPFHDGLDSTTEIATRFVQESEAQLKSGGIFQIVANRHLPYSDTIAKFFKTVNVAAENNKYKIYANRKA” is “not soluble”.
The entry for “MGSDKIHHHHHHVRVTSSSGSCITIPTGVTNVTIRDSEIGPCGQPGDTSAKGIDIQSGASNITVQRNYIHDMATALYAAGARHPIIFDRNRVTNIRGPFPRGQMVQFNGVKSGTSGSKVTCNVSDVQGATYSNVEDHINMYDSGGLSNDRTEIAYNRLRGGSPTSNSGTAIMVGDGASGGNAWVHHNTIVNVRNVGIGVAGGTNIDVESNRIYMDRAATYTNVGLYVWSQGGGSCSGHSVTGNRAWVNSSNGAQNPWWNGGNCGAVELVSNVWGDTSLSSSMFNEVPSQCQ” is “not soluble”.
